Assay results reported in paper PMC3374797, “Intrinsically Unstructured Domain 3 of Hepatitis C Virus NS5A Forms a “Fuzzy Complex” with VAPB-MSP Domain Which Carries ALS-Causing Mutations” (PLoS ONE, 2012).
“Also recorded” adds a separate entry of the source.

What was measured:
VAPB-MSP(1–125) [1] = target: T1, VAPB-MSP(1–125) (Homo sapiens, UniProt O95292); assay: NMR HSQC titration of 15N-VAPB-MSP(1-125) with NS5A fragments, Kd fitting; assay type: binding; design: His tag (N, cleaved yes); made in house; host or cells: Escherichia coli BL21 (DE3) Star
Procedure: (§1) NMR samples were prepared in 10 mM phosphate buffer in the presence of 10 mM DTT (pH 6.8). All NMR data were collected at 25°C on an 800-MHz Bruker Avance spectrometer equipped with a shielded cryoprobe as described before [70]–[73]. For HSQC characterization, samples were prepared at a protein concentration of 100 µM. For sequential assignments of NS5A-D3, triple-resonance NMR experiments including HNCACB and CBCA(CO)NH were acquired on a double-labeled sample at a protein concentration of ∼300 µM while for sequential assignments of NS5A-D3A, three-dimensional heteronuclear NMR experiments including HSQC-TOCSY and HSQC-NOESY were acquired on a ^15N-labeled sample at a protein concentration of ∼500 µM. NMR data were processed with NMRpipe and analyzed with NMRview.
(§2) For NMR HSQC characterization of the binding interactions between NS5A and VAPB fragments/domains, two-dimensional ^1H-^15N HSQC spectra of the ^15N-labeled proteins were acquired at a protein concentration of 50 µM in the absence or presence of the unlabeled binding partners at different molar ratios. By superimposing the HSQC spectra at different molar ratios, the shifted or disappeared HSQC peaks could be identified and further assigned to the corresponding residues as we previously described, [67]–[70]. The degree of perturbation was reflected by an integrated chemical shift difference (CSD) calculated by the formula ((Δ^1H)^2+(Δ^15N)^2/5)^1/2 [73]. The CSD tracings were fitted by using the one binding site model to obtain residue-specific dissociation constants (Kd); which are summarized in Table 1.

[2] = target: T2, VAPB-MSP(1–125) T46I mutant (Homo sapiens, UniProt O95292, T46I); assay: NMR HSQC titration of 15N-VAPB-MSP(1-125) T46I mutant; assay type: binding
T2 construct: chemical shifts of VAPB-MSP(1–125) T46I mutant in the presence of unlabeled NS5A-D3C; His tag (N, cleaved yes); made in house; host or cells: Escherichia coli BL21 (DE3) Star
Procedure: as §1, §2

VAPB-MSP(1–125) [3] = target: T1, VAPB-MSP(1–125); assay: NMR competition of EphA4 LBD with D3B for VAPB-MSP(1-125); assay type: binding; design: His tag (N, cleaved yes); made in house; host or cells: Escherichia coli BL21 (DE3) Star; conditions: MSP saturated by D3B at 1:4 (MSP/D3B); EphA4 at 1:10 (MSP:EphA4)
Procedure: NMR titration and docking results all reveal that the D3B peptide is able to occupy the MSP surface regions which are also critical for binding to EphA4 receptor as we previously characterized. To confirm this, we first saturated the VAPB-MSP(1–125) by D3B at a molar ratio of 1∶4 (MSP/D3B). Subsequently the EphA4 ligand-binding domain (LBD) was gradually titrated into this sample.
NMR samples were prepared in 10 mM phosphate buffer in the presence of 10 mM DTT (pH 6.8). All NMR data were collected at 25°C on an 800-MHz Bruker Avance spectrometer equipped with a shielded cryoprobe as described before [70]–[73]. For HSQC characterization, samples were prepared at a protein concentration of 100 µM. […] NMR data were processed with NMRpipe and analyzed with NMRview.
For NMR HSQC characterization of the binding interactions between NS5A and VAPB fragments/domains, two-dimensional ^1H-^15N HSQC spectra of the ^15N-labeled proteins were acquired at a protein concentration of 50 µM in the absence or presence of the unlabeled binding partners at different molar ratios. […] The degree of perturbation was reflected by an integrated chemical shift difference (CSD) calculated by the formula ((Δ^1H)^2+(Δ^15N)^2/5)^1/2 [73]. […]

VAPB-MSP T46I mutant = conditions: ref [51]; cited from earlier work
VAPB-MSP(1–125) [4] = target: T1, VAPB-MSP(1–125); design: His tag (N, cleaved yes); made in house; host or cells: Escherichia coli BL21 (DE3) Star; conditions: molar ratio 1:2; ref [51]; cited from earlier work
Text: NMR titration and docking results all reveal that the D3B peptide is able to occupy the MSP surface regions which are also critical for binding to EphA4 receptor as we previously characterized. […] Subsequently the EphA4 ligand-binding domain (LBD) was gradually titrated into this sample.

VAPB-MSP(1–125) [5] = target: T1, VAPB-MSP(1–125); assay: NMR titration

T1 sequence (O95292 1-125): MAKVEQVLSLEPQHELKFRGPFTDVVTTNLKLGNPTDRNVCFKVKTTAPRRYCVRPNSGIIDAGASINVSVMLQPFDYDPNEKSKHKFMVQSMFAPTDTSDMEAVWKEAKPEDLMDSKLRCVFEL
T2 sequence (O95292 1-125 T46I): as the sequence (O95292 1-125) above, with T46I counted along it

## CSCC[C@H](NC(=O)[C@H](CO)NC(=O)[C@H](CO)NC(=O)[C@H](Cc1ccc(O)cc1)NC(=O)[C@H](CO)NC(=O)[C@H](CCC(=O)O)NC(=O)[C@H](C)NC(=O)[C@H](CC(=O)O)NC(=O)[C@H](CO)NC(=O)CN)C(=O)N1CCC[C@H]1C(=O)N1CCC[C@H]1C(=O)N[C@@H](CC(C)C)C(=O)N[C@@H](CCC(=O)O)C(=O)NCC(=O)N[C@@H](CCC(=O)O)C(=O)N1CCC[C@H]1C(=O)NCC(=O)N[C@@H](CC(=O)O)C(=O)N1CCC[C@H]1C(=O)N[C@@H](CC(=O)O)C(=O)N[C@@H](CC(C)C)C(=O)N[C@@H](CO)C(=O)N[C@@H](CC(=O)O)C(=O)NCC(=O)N[C@@H](CO)C(=O)N[C@@H](Cc1c[nH]c2ccccc12)C(=O)N[C@@H](CO)C(=O)N[C@H](C(=O)N[C@H](C(=O)N[C@@H](CO)C(=O)N[C@@H](CCC(=O)O)C(=O)N[C@@H](CCC(=O)O)C(=O)N[C@@H](C)C(=O)N[C@@H](CO)C(=O)N[C@@H](CCC(=O)O)C(=O)N[C@@H](CC(=O)O)C(=O)N[C@H](C(=O)N[C@H](C(=O)O)C(C)C)C(C)C)C(C)C)[C@@H](C)O [D3B]
VAPB-MSP(1–125) [1]; 15N-VAPB-MSP(1-125), unlabeled NS5A fragment
  Interaction (Yes/No) with VAPB-MSP(1-125): Yes
VAPB-MSP(1–125) [1]; molar ratio up to 1:4 (MSP/D3 peptide)
  MSP residues whose HSQC peaks undergo gradual but significant shifts: Gln6, Met89-Val90-Gln91, Asp116, Leu119 and Val122
VAPB-MSP(1–125) [1]; relative to D3 (and D3A, D3B)
  Binding affinity to VAPB-MSP, in words: retains almost the same binding affinity and mode as the 89-residue D3
VAPB-MSP(1–125) [1]; words, 50 µM 15N-labelled protein
  HSQC perturbation of VAPB-MSP(1-125): almost the same shifting pattern and similar amplitude
[2]; 15N-VAPB-MSP(1-125) T46I
  Interaction (Yes/No) with VAPB-MSP(1-125) T46I: Yes/Weak
[2]; molar ratio up to 1:6 (T46I/D3B)
  HSQC perturbation of T46I mutant: only a small set of T46I HSQC peaks were found to shift slightly of very small amplitude
[2]; shift tracings highly unsaturated, up to 1:6 (T46I/D3B)
  Kd for T46I mutant, statement in words: impossible to fit out the CSD tracings to obtain Kd values

## EphA4 LBD: 181-residue EphA4 ligand binding domain
VAPB-MSP(1–125) [3]
  HSQC perturbation of MSP by EphA4 LBD with pre-existence of D3B: only several MSP peaks were observed to shift slightly
VAPB-MSP T46I mutant
  Effect of T46I mutation on binding to EphA4: reduced affinity to EphA4; also recorded: considerably reduces the binding affinity to EphA4
VAPB-MSP(1–125) [4]
  HSQC perturbation of MSP by EphA4 LBD without D3B: started to trigger peak shift and disappearance of the MSP residues

## NS5A-D3(359–447) (domain or fragment)
VAPB-MSP(1–125) [5]
  Kd: 4.5 µM
  residue-specific Kd (Asp116): 6.2 µM
  residue-specific Kd (Gln6): 6.8 µM
  residue-specific Kd (Gln91): 2.4 µM
  residue-specific Kd (Leu119): 4.5 µM
  residue-specific Kd (Met89): 5.2 µM
  residue-specific Kd (Val90): 4.6 µM
  residue-specific Kd (Val122): 1.7 µM

## NS5A-D3A(394–447) (domain or fragment)
VAPB-MSP(1–125) [5]
  Kd: 8 µM
  residue-specific Kd (Asp116): 10.2 µM
  residue-specific Kd (Gln6): 11.5 µM
  residue-specific Kd (Gln91): 7.1 µM
  residue-specific Kd (Leu119): 7.7 µM
  residue-specific Kd (Met89): 9.9 µM
  residue-specific Kd (Val90): 7.2 µM
  residue-specific Kd (Val122): 2.4 µM
